This assay has as its target PP2A:B55 holoenzyme (PP2Aa, B55, PP2Ac) (UniProt P30153).

*1 amine or outer side, *2 acyl side, *3 side chain or, on linkers, in order; H or OH if unused. Where no end group is shown, it is not given here. [ ]: non-standard residue; d: D form. tpS = thiophosphoserine, O=C([C@H](COP(O)(O)=S)N[*:1])[*:2] Where only a bound is given, the exact number is not on record here.

PP2A:B55 holoenzyme (PP2Aa, B55, PP2Ac), sequence (P30153 9-589, chain 1 of 3): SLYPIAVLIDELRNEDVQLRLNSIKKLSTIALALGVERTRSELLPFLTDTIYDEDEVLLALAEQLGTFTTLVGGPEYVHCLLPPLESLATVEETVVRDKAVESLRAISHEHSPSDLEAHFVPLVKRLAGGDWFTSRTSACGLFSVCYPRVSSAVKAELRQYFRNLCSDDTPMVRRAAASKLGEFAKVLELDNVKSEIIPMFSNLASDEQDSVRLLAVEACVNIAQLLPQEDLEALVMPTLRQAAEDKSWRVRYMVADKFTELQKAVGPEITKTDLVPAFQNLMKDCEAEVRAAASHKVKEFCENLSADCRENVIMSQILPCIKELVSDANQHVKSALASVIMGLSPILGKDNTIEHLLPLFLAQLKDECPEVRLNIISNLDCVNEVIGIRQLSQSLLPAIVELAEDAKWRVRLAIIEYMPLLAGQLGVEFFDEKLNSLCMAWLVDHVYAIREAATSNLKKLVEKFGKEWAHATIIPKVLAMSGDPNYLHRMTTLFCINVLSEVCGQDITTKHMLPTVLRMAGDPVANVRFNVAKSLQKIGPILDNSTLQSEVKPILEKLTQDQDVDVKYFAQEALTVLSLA
PP2A:B55 holoenzyme (PP2Aa, B55, PP2Ac), sequence (P63151 whole entry, chain 2 of 3, further chain): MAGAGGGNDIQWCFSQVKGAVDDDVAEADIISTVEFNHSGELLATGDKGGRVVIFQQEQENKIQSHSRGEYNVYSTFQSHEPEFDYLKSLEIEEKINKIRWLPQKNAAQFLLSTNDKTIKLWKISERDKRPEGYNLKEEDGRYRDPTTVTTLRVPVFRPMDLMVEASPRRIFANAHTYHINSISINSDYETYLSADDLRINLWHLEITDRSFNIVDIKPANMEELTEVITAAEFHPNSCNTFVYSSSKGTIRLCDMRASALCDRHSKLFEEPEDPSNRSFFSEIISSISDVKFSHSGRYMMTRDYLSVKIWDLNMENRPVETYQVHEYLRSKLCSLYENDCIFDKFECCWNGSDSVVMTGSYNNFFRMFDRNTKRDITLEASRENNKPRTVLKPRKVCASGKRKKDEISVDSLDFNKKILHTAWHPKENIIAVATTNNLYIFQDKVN
PP2A:B55 holoenzyme (PP2Aa, B55, PP2Ac), sequence (P67775 whole entry, chain 3 of 3, further chain): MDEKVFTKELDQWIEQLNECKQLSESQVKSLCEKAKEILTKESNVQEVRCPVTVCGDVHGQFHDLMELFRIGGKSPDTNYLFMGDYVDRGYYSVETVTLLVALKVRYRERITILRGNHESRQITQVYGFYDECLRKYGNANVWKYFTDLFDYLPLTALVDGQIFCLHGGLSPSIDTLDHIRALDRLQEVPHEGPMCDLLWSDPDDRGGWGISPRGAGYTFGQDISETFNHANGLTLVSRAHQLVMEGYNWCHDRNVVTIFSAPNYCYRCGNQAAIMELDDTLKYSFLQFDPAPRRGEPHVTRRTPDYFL

B1: tpARPP19_(19–75) (domain or fragment)
chain: DKVTSPEKAEEAKLKARYPHLGQKPGGSDFLRKRLQKGQKYFD[tpS]GDYNMAKAKMKNK
modifications: also: thiophosphorylated, site not given here
For the molecule B1, the IC50 of PP2A:B55 inhibition (DiFMUP), against tpARPP19 was > 50 fold.

The record behind these values is publication PMC10765524.
